This experiment deals with Human properdin (factor P) (human) (UniProt P27918). Kind of experiment: SPR; FP immobilised by amine coupling to 79.55 RU; FXI or FXIa injected by OneStep gradient, maximum 50 nM, 30 uL/min, dissociation 300 s; Pall/ForteBio Pioneer; run in triplicate. (SPR reads the build-up and loss of mass on a sensor chip optically.)
Sequence of UniProt P27918 (P27918 28-469): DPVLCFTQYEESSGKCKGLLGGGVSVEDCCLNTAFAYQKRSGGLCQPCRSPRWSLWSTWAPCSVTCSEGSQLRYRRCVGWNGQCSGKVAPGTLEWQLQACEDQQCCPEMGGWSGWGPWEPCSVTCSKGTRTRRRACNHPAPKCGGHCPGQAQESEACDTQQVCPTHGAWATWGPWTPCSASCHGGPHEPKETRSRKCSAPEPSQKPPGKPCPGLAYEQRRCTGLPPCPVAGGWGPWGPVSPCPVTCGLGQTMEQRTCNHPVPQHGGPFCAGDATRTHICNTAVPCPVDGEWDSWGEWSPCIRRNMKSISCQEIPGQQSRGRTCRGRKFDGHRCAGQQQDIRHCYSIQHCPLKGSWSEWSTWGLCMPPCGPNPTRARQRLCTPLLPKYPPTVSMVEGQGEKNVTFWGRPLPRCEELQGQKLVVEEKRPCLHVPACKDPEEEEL

A word on the Kd: it is the equilibrium constant for the complex coming apart. Consider “Human activated coagulation factor XI (preactivated by FXIIa) (enzyme)”, for which the Kd is 0.35 nM.

Turning to “Human coagulation factor XI zymogen (natural protein)”, the Kd stood at 16.1 nM.

These data come from article PMC9130567.
